Assay: soluble on expression in E. coli; label from the status in PepcDB or PDB records

Sequence	soluble on expression in E. coli
MPKISSRDGGRPAQRTVNPIIVTRRGKIARLESGLTPQEAQIEDLVFLRKVLNRADIPYLLIRNHKNRPVLAINIELRAGLERALAAACATEPMYAKTIDEPGLSPVLVATDGLSQLVDPRVVRLYRRRIAPGGFRYGPAFGVELQFWVYEETVIRCPVENSLSRKVLPRNEITPTNVKLYGYKWPTLDGMFAPHASDVVFDIDMVFSWVDGSDPEFRARRMAQMSQYVVGEGDDAEARIRQIDELKYALRSVNMFAPWIRRIFIATDSTPPPWLAEHPKITIVRAEDHFSDRSALPTYNSHAVESQLHHIPGLSEHFLYSNDDMFFGRPLKASMFFSPGGVTRFIEAKTRIGLGANNPARSGFENAARVNRQLLFDRFGQVITRHLEHTAVPLRKSVLIEMEREFPEEFARTAASPFRSDTDISVTNSFYHYYALMTGRAVPQEKAKVLYVDTTSYAGLRLLPKLRKHRGYDFFCLNDGSFPEVPAAQRAERVVSFLERYFPIPAPWEKIAADVSRRDFAVPRTSAPSEGALEHHHHHH	not soluble
MPKMDVKGIAVTVYSENAMDFISLTDMLRAKDGDFFISDWLRNRNTVEFLGIWEQVHNPNFNYGEFATIRSQAGLNSYKISVKEWVARTHAIGLVAKAGRYGGTYAHKDIAFEFGMWISAEFKIYLIKEFQRLKEAEQQQLGWDIRRNLTKINYRIHTDAIQTNLIPPALTQSQISLIYASEADLLNMALFGKTAKQWREENPNNKGNIRDEANVSQLVCLANLETLNAHFIHQGLPQVERLKILNQTAIHQMKLLLADRSLKQLDGN	not soluble
MPKSVKVIAVTPEEREAVMSIDFGGAYDFTSPGFNLFEVREKYSEPMDAAAGVVYNLLWNSGLPEKFGCREQTLLNFILQCRRRYRRVPYHNFYHVVDVCQTLHTYLYTGKASELLTELECYVLLVTALVHDLDHMGVNNSFYLKTDSPLGILSSASGNNSVLEVHHCSLAIEILSDPAADVFEGLSGQDVAYAYRALIDCVLATDMARHGDLSRVFDDMAKAGYDSNDQESRRLVMETLIKAGDVSNVTKPFETSRMWAMAVTEEFYRQGDMEKEKGVEVLPMFDRSKNNELARGQIGFIDFVAGKFFRDIVGNLFHGMQWCVDTVNSNRAKWQEILDGRRDSIRPSIV	soluble
MPKVAILIYSVDDIIATLAENEKKGIEIAGGEAEIFQVPDVSYKTEYATEEGKEAAKVAKTNADFSYKILTRETLVEYDYYLFGIPTKFGNFPAEWKSFWDSNTGGLWAKGSLHGKIAGLFVSGAISGKGDTEMCIMNAMSTLVHHGVIYVPLGYKNAYKELTDVEDVNGSCAWGAGCVSGIDGGRPPSLSELRVHQLQGKAFYDRIKDL	not soluble
MPKVRTKDLIEQFQLELISGEEGIHRPIDTSDLSRPGIEMAGFFTYYPADRVQLLGKTELTFFDTLTSDQKQERMKALCTEETPCIIVTRNQDVPDELLQASRESGMPLLRSSQTTTRLSSRLTNYLEGKLAPTTAVHGVLVDIYGVGVLITGQSGVGKSETALELVKRGHRLVADDSVEIRQEDEDMLVGSSPDLIEHLLEIRGLGIINVMTLFGAGAVRNYKRITLVINLEIWDQKKNYDRLGLDEEKMKIIDTELTKITLPVRPGRNLAVIIEVAAMNFRLKRMGVNAAQQFSERLMSAIELGNQE	not soluble
MPLAVDLLHPEPQREIRCHKLKRLVQHPNSYFMDVKCSGCFKISTVFSHATTVVVCVGCNTVLCQPTRGKAKLTEGCSFRKKQ	not soluble
MPLDGEYEPSPTQWVREQVERYESSGGTEGTTLMDTGLPVIVLTTRGARSGKLRKTPLMRVEHEGRYAVVASLGGAPKHPVWYFNVKADPRVELQDGPVKQDMTAREVTGAEKARWWERAVAAYPSYADYQKKTEREIPVFVLEPSHAG	not soluble
MPLFAGFSPRSGQGDLAEFVDIINGARRDLLFVTAFALPDSILDALLGQPHDDVLRYGLQNTASRITGFHADRTAEFAATALLNNGLEGWLKEGLKGQKGNLLVHTKAIVTDFTSEAPVIISGSHNLSVGASQSNDENFLIIRGDIDLEHHHHHH	soluble
MPLGLFSSGKAQVLCDEKIPGGKKKEPKQLSENKCKGVTLKLDHTRVTIEKQIAEGGFAIVYVASDRKNNKFALKRQFTKDNEKQLEACCREHSFLKQCIGHKNIVEFVDSYTNCLGNGIWECMLLTEYHQKNVLQLMNERISQNQYLTNDEILSIFTDLCEAVSFIHNRPQPIIHRDLKVENVLISSHKPPHYVLCDFGSATTQILSVEKYGVEYVKSEVERNTTMCYRSPEMIDFYSGLEIGLKSDIWALGVLLYRLCFFCVPFEESPLAIQSVNYQFPSVPNIPDEIKVLIYMLLDIDVNRRPSIYQTSVLAFEANHRKPLSEEIQNKKCTDAVPSLKSCIQLMRDGSNPRNKRDSSPRNPEAPPIQSSSKMASLSQQVPSISNISMPSGSGTVETSVAPRLRPKATTVVPNVPSISPVPPVGLPHLRLPSKGSTDETDGSQVRKVPIDFHHRQSFSGEEQLKPAAEADSAGPLSCPLIKPTDLGFTDLDKPALPRDRAQTDGKRRLPHESDIIFQQQHRRNVSDTSQISRSAFKPYSSQQTTSKTSSQVVRSVEDMSQRQNGGSGEWNPFLVAPFSNNSISRKDGQESAFMMDDSHFGMVFDEIRRKEIPAELDSETSSIDSRDPFGAAPFDQLTVSTSSSAQPVSLPPATDEDDERQLLSETDEEEKYEIDEKEEIQTKKDETINEEDSEIDEQRMNDRRRYSYENIDGVGDDASSDSRGKTDRDDSEEEEDDDSRRGGDTSHDEDSQNTVGSEDGEGGSRPLLEDDGLEDDDDHELISSFSSSSTNYPPLFIGTSTPHTQNPITNPFLRDELTPKMIITAPLPTAKNNLDDDWDLGDRWTDRRDTVFERPASEHQNVFAPATLPRQATPLVCRFKPDLPTAAPVSIIPSMSNTSFPEAVRDSDTVPCEPIIGTLISVGAPTDPPPPPLPKKPTEASPTQETTATIPVALGKKEKLLKKEKKKEKKDGKKDKLKLEEYREKGSSEPETDGSEAEIWTNDGATTFSNKKKKKSTFGLRSSHPSIVANDLQFSSPMPPVVKKSSKDKKSSLTGKNASFVNTSFQPEDHDDPTDL	soluble
MPLTPADVHNVAFSKPPIGKRGYNEDEVDAFLDLVEQELSRLIEENADLRQRVGELDKELADAKKAPRSGSAAPTPAPKAEPARVVEQPKAPAPAPAPAAAAAAAPAQGADAHMQAAKVLGLAQEMADRLTSDAKTESEQLLGNARTNSEQLVSDARTRSETMIADARQKSEALITDAQTRSETQLRQAKEKADALQADAEKKHTEIMATINQQRSVLEGRIEQLKTFEREYRVRLKSYLESQLEELEQRGSAVPVDGGQDSFAQGGSQSNYSQSYAKGNS	not soluble
MPLTSVTPLCITWNGEKLVAAGYDSTILTAVPKDIVKVKVNDRPIVFDVAPIIGEGRTLVPLRHIFEALGAEVKWDASTRTVTGIKGSDKIILKIDSKEALVNGETKELDVPATIVNGRTLVPVRSISESLGAEVSWDDNSKTVIIKTNF	not soluble
MPMFNTLTSLFKQLLEGQDLAQHSATPELAIACLLSEVAGADQQISAPEQQAKLALLQHLLQCTAEQASDLLMRAEQEVKQSASLYDFTSQLRSLSQTQRFELIKAMWEVANADGTIDPLEDAVIRKAAELLYVDHSQFIRAKLMAADKHQSPE	not soluble
MPNNLELKQLIASAQVLGLQNDSSLPAFDRQILRMADEEKRALSPTEIQHICQTSKVDAQLIEQLQSQANHLVQQAREFLVKEQPHLVQSGGALFPSERAEACWRDCWQFFRVIVYAIACKRPLFTDAEGMGALRALYAHVGVPIEGLNIALKQLKVLSRQEISGAIEAPLLSESFGHLLEELNKTGVKS	not soluble
MPNPRRIVFGDVHGHFDALTALFEAIAPNERDGVYFVGDLIDRGPESAKVVDFVMENKYHCLLGNHEQMMLDAVGGFNFSPQLLHAWIYSGGKSTLESYEHQIPQSHVDWMRNLPLYLDLGDVWLVHAGVDPRLPIEEQGEAQFCWIRDEFHRYPYPYFANKLIITGHTITFTFANVEPGKLVSGPGWLDIDTGAYHPKSGWLTALELNNQEVYQAHIFTNEVRRLPLEDAVVPLPPQNLHRLEHHHHHH	not soluble
MPQNYPWLNTEQPLSIKQLNGRVVILDFWTYCCINCLHVLPDLKYLEQKYKDSLTVIGVHSAKFDNEQETENIRQAILRYDIEHPVLVDKDFRVWQEYAVRAWPTLMVIDPKGYVIGYVSGEGNRDKLDQLITQVIQEHQGAINFQQLSLTLEKQRQPLITPLAFPGKVLATPSGLFVADSGHHRIVVSDFNGEILHLIGNGKSGLTDGNFQEAQFSAPQGMAFDMENQILYLADTENHALRRVDINQQTVETIAGTGEQSRNIQPHGGVGLETALNSPWDLVNIENSLYIAMAGVHQIWQMDLASGVIKTYAGTGVEACLDASLTESAFAQPSGITNNEQELYIADSEISSIRGVGLVEPQEVRTVCGSGGLFGFGDVDGQGEDVRLQHCLGVEYFQNYLWVADTYNHKIKSVSPHTGNCQTVLGDGLAGLQNGQGKNTRFFEPSGLSAIDSYLYISDTNNHVIRRVDLRTLEVTTMQFNGLCAPDVCIPNNFLEHHHHHH	soluble
MPQPEQLPGPNADIWNWQLQGLCRGMDSSMFFHPDGERGRARTQREQRAKEMCRRCPVIEACRSHALEVGEPYGVWGGLSESERDLLLKGTMGRTRGIRRTA	not soluble
MPRAVAERGDVVPVLAEVFRSHGFDGASLAVITEHTGLGKGSLYNFFPRGKDEMAEAVLDEVDAWFQTAVYLPLRGSEPAAARLERMFDEVETYFRSGRRICLFGAFALGLERDRFADRVRAYFTDWVDSLAGALADAGHGRPSRPLAEEVVAGIQGALVLARALDDPDSFTRILTRLRRSVGDPTTSRA	soluble
MPRFMRTQTKLRTIIRSNLMLNSSSMEISRSLTSWQKGARSIIHRALQYLEGNLTVIEHFPDQTQTTHEQFGQDKPDAIHAVIEIKHPDFYSRVLKGGSIAAAEAYMEGWWESPNLTALMQLMAANLGTLDKLESQSSPVTQWLNRFTHWLKRNTIDQAKDNIHQHYDLGNELYQLFLDEEMLYSSALFTQPELSLEQAQQAKMQRLCEQLQLKPTDHVLEIGTGWGAMAIYMAQHYGCKVTTTTISEEQYAYAQQKITALGLNNQITLLKQDYRLLSGQYDKLVSIEMIEAVGKAYLPTFLSQCYALLKPRGKMAIQAITIADQRYESYSNNVDFIQKYIFPGGFLPSISVLTELATKRTGLVLRNLHDIGIDYALTLQHWRDRFEQQLPKVRDLGYDERFIRMWRYYFCYCEGGFLARSISTVHMTFERD	not soluble
MPSASASRKSQEKPREIMDAAEDYAKERYGISSMIQSHEKPDRVLVRVRDLTIQKADEVVWVRARVHTSRAKGKQCFLVLRQQQFNVQALVAVGDHASKQMVKFAANINKESIVDVEGVVRKVNQKIGSCTQQDVELHVQKIYVISLAEPRLPLQLDDAVRPEAEGEEEGRATVNQDTRLDNRVIDLRTSTSQAVFRLQSGICHLFRETLINKGFVEIQTPKIISAASEGGANVFTVSYFKNNAYLAQSPQLYKQMCICADFEKVFSIGPVFRAEDSNTHRHLTEFVGLDIEMAFNYHYHEVMEEIADTMVQIFKGLQERFQTEIQTVNKQFPCEPFKFLEPTLRLEYCEALAMLREAGVEMGDEDDLSTPNEKLLGHLVKEKYDTDFYILDKYPLAVRPFYTMPDPRNPKQSNSYDMFMRGEEILSGAQRIHDPQLLTERALHHGIDLEKIKAYIDSFRFGAPPHAGGGIGLERVTMLFLGLHNVRQTSMFPRDPKRLTP	soluble
MPSEKAFIQHLRTASFQGLHLHHFHQKVGKCGVVGFDIHIFPTLLPAAQGILDIQLGLFRIDCAPLAVYRRTQVDFIHTVIDGIASDQAFSEVVQILRRLNLGHFTDTHLIAQARRFIADFGNIRPMRRGKAETFCRCFRFDGIDRIHGDFRQCGHINRLAAGKNCRNGKRDKVFFHAPIIIKFALRKQIVRQEK	not soluble
MPSGVCEPKERSPCMNKIDKLDKELEKAREKAAEWQAKIRELEKQKQEEENSQIVQAVRSLKLTPAQLMAFLNDPKNSLTASGHTDPKPEAPEKEDTAHEEN	not soluble

— the DeepSol protein solubility set
